Data as given in patent publication US20230322944A1.
Where a chain is given by its changes, count along the chain named.

B1: MAB05 (antibody, V domains shown)
VH: EVQLLESGGGLVQPGGSLRLSCAASGFTVTSYAVHWVRQAPGKGLEWLGVIWSGGSTDYNAAFISRLTISKDNSKNTVYFQMNSLRAEDTAVYYCARAGDANYDGFAYWGQGTLVTVSS
VL: DIQMTQSPSSLSASVGDRVTITCQASQSVSFLYWYQQRPGKAPRLLIYDTSNLASGVPSRFSGSGSGTSYTFTISSLQPEDIATYYCQQWSTYPLTFGQGTKVEIK
B2: MAB06 (antibody, V domains shown)
VH: B1 VH
VL: B1 VL with Q27S, L32M

Molecular target: cynomolgus monkey CD122 on NK cells (cynomolgus monkey) (UniProt Q38J85)
Sequence (Q38J85 27-551 limits assumed): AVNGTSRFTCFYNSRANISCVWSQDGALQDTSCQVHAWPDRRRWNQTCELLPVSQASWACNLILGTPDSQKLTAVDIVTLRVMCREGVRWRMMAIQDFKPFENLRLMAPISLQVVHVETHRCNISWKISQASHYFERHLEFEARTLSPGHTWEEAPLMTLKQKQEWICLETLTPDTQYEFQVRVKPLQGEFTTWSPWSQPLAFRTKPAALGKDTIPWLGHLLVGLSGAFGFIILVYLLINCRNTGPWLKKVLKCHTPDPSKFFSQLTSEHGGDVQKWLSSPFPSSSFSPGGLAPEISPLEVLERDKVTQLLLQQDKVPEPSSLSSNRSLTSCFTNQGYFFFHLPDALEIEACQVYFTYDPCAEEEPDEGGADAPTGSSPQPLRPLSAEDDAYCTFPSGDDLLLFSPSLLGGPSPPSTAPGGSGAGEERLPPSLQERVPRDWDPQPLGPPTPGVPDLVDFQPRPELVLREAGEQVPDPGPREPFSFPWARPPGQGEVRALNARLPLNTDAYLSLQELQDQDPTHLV
Experiment: flow cytometry of blood from cynomolgus monkeys after a single IV dose of 1 mg/kg

Binder | CD122 receptor occupancy on NK cells [%]
B1 | > 90
B2 | > 90
